Assay results: patent US20240092919A1
Residue numbers refer to the chain shown, from its start.

B1: A022600172 (protein)
chain: DVQLVESGGGVVQPGGSLRLSCVASGYVHKINFYGWYRQAPGKEREKVAHISIGDQTDYADSAKGRFTISRDESKNTVYLQMNSLRPEDTAAYYCRALSRIWPYDYWGQGTLVTVSSGGGGSEVQLVESGGGLVQPGGSLRLSCVASGFTFSSFAMTWVRRPPGKGLEWVATITNGGVTSYRDSVKGRFTISRDNAKNTLYLEMTSLNPEDTAVYICANARRTGPRAPTDIGSYRGQGTLVTVSSGGGGSGGGSEVQLVESGGGVVQPGGSLRLSCAASGFTFRSFGMSWVRQAPGKGPEWVSSISGSGSDTLYADSVKGRFTISRDNSKNTLYLQMNSLRPEDTALYYCTIGGSLSRSSQGTLVTVSSGGGGSGGGSEVQLVESGGGLVQPGGSLRLSCVASGSIFRSVFSSSTMEWYRQPPGKKRELVARIAPGDGTNYGALYADSVKGRFTISRDDAKKTVDLQMNSLKPEDTGVYFCASGVAWGQGTLVTVSSA
B2: A022600412 (protein)
chain: DVQLVESGGGVVQPGGSLRLSCVASGYVHKINFYGWYRQAPGKEREKVAHISIGDQTDYADSAKGRFTISRDESKNTVYLQMNSLRPEDTAAYYCRALSRIWPYDYWGQGTLVTVSSGGGGSEVQLVESGGGVVQPGGSLRLSCAASGFTFSSFAMTWVRRPPGKGLEWVATITNAGVTSYADSVKGRFTISRDNAKNTLYLQMNSLRPEDTALYICANARRTGPRAPTDIGSYRGQGTLVTVSSGGGGSGGGGSGGGGSGGGGSEVQLVESGGGVVQPGGSLRLSCAASGFTFRSFGMSWVRQAPGKGPEWVSSISGSGSDTLYADSVKGRFTISRDNSKNTLYLQMNSLRPEDTALYYCTIGGSLSRSSQGTLVTVSSA
B3: A022600170 (protein)
chain: DVQLVESGGGVVQPGGSLRLSCVASGYVHKINFYGWYRQAPGKEREKVAHISIGDQTDYADSAKGRFTISRDESKNTVYLQMNSLRPEDTAAYYCRALSRIWPYDYWGQGTLVTVSSGGGGSEVQLVESGGGLVQPGGSLRLSCVASGFTFSSFAMTWVRRPPGKGLEWVATITNGGVTSYRDSVKGRFTISRDNAKNTLYLEMTSLNPEDTAVYICANARRTGPRAPTDIGSYRGQGTLVTVSSGGGGSGGGGSGGGGSGGGGSGGGGSGGGGSGGGGSEVQLVESGGGLVQPGGSLRLSCVASGSIFRSVFSSSTMEWYRQPPGKKRELVARIAPGDGTNYGALYADSVKGRFTISRDDAKKTVDLQMNSLKPEDTGVYFCASGVAWGQGTLVTVSSGGGGSGGGSEVQLVESGGGVVQPGGSLRLSCAASGFTFRSFGMSWVRQAPGKGPEWVSSISGSGSDTLYADSVKGRFTISRDNSKNTLYLQMNSLRPEDTALYYCTIGGSLSRSSQGTLVTVSSA
B4: A022600427 (protein)
chain: DVQLVESGGGVVQPGGSLRLSCVASGYVHKINFYGWYRQAPGKEREKVAHISIGDQTDYADSAKGRFTISRDESKNTVYLQMNSLRPEDTAAYYCRALSRIWPYDYWGQGTLVTVSSGGGGSEVQLVESGGGVVQPGGSLRLSCAASGFTFSSFAMTWVRRPPGKGLEWVATITNAGVTSYADSVKGRFTISRDNAKNTLYLQMNSLRPEDTALYICANARRTGPRAPTDIGSYRGQGTLVTVSSGGGGSGGGSEVQLVESGGGVVQPGGSLRLSCAASGSIFRSVFSSSTMEWYRQAPGKKRELVARIAPGEGTYYGALYADSVKGRFTISRDNAKNTVYLQMNSLRPEDTALYYCASGVAWGQGTLVTVSSGGGGSGGGSEVQLVESGGGVVQPGGSLRLSCAASGFTFRSFGMSWVRQAPGKGPEWVSSISGSGSDTLYADSVKGRFTISRDNSKNTLYLQMNSLRPEDTALYYCTIGGSLSRSSQGTLVTVSSA
B5: A022600425 (protein)
chain: DVQLVESGGGVVQPGGSLRLSCVASGYVHKINFYGWYRQAPGKEREKVAHISIGDQTDYADSAKGRFTISRDESKNTVYLQMNSLRPEDTAAYYCRALSRIWPYDYWGQGTLVTVSSGGGGSEVQLVESGGGVVQPGGSLRLSCAASGSIFRSVFSSSTMEWYRQAPGKKRELVARIAPGEGTYYGALYADSVKGRFTISRDNAKNTVYLQMNSLRPEDTALYYCASGVAWGQGTLVTVSSGGGGSGGGGSGGGGSGGGGSEVQLVESGGGVVQPGGSLRLSCAASGFTFSSFAMTWVRRPPGKGLEWVATITNAGVTSYADSVKGRFTISRDNAKNTLYLQMNSLRPEDTALYICANARRTGPRAPTDIGSYRGQGTLVTVSSGGGGSGGGSEVQLVESGGGVVQPGGSLRLSCAASGFTFRSFGMSWVRQAPGKGPEWVSSISGSGSDTLYADSVKGRFTISRDNSKNTLYLQMNSLRPEDTALYYCTIGGSLSRSSQGTLVTVSSA
B6: A022600426 (protein)
chain: B5 chain with A315K
B7: A022600179 (protein)
chain: DVQLVESGGGVVQPGGSLRLSCVASGYVHKINFYGWYRQAPGKEREKVAHISIGDQTDYADSAKGRFTISRDESKNTVYLQMNSLRPEDTAAYYCRALSRIWPYDYWGQGTLVTVSSGGGGSEVQLVESGGGLVQPGGSLRLSCVASGFTFSSFAMTWVRRPPGKGLEWVATITNGGVTSYRDSVKGRFTISRDNAKNTLYLEMTSLNPEDTAVYICANARRTGPRAPTDIGSYRGQGTLVTVSSGGGGSGGGSEVQLVESGGGVVQPGGSLRLSCAASGFTFRSFGMSWVRQAPGKGPEWVSSISGSGSDTLYADSVKGRFTISRDNSKNTLYLQMNSLRPEDTALYYCTIGGSLSRSSQGTLVTVSSA
B8: T017000139 (bispecific antibody)
chain: DVQLVESGGGLVQPGGSLRLSCVASGDVHKINFLGWYRQAPGKEREKVAHISIGDQTDYADSAKGRFTISRDESKNMVYLQMNSLKPEDTAVYFCRAFSRIYPYDYWGQGTLVTVSSGGGGSGGGGSGGGGSGGGGSGGGGSGGGGSGGGGSEVQLVESGGGLVQAGGPLRLSCAASGRTFSSYVMGWFRQAPGKEREFVAAIYWSNGKTQYTDSVKGRFTISGDNAKNTVYLQMNSLNPEDTAVYYCVADKDETGFRTLPIAYDYWGQGTLVTVSSGGGGSGGGGSGGGGSGGGGSGGGGSGGGGSGGGGSEVQLVESGGGLVQAGGSLRLSCAASGITSKINDMGWYRQTPGNYREWVASITATGTTNYRDSVKGRFTISRDNAKSTVYLQMNSLKPEDTTVYYCNTFPPISNFWGQGTLVTVSSA
B9: T017000670 (bispecific antibody)
chain: B8 chain with L11V, D27Y, L34Y, M77T, K86R, V92L, F94Y, F98L, Y102W
B10: T017000675 (bispecific antibody)
chain: DVQLVESGGGLVQAGGPLRLSCAASGRTFSSYVMGWFRQAPGKEREFVAAIYWSNGKTQYTDSVKGRFTISGDNAKNTVYLQMNSLNPEDTAVYYCVADKDETGFRTLPIAYDYWGQGTLVTVSSGGGGSGGGGSGGGGSGGGGSGGGGSGGGGSGGGGSEVQLVESGGGLVQAGGSLRLSCAASGITSKINDMGWYRQTPGNYREWVASITATGTTNYRDSVKGRFTISRDNAKSTVYLQMNSLKPEDTTVYYCNTFPPISNFWGQGTLVTVSSGGGGSGGGGSGGGGSGGGGSGGGGSGGGGSGGGGSEVQLVESGGGVVQPGGSLRLSCVASGYVHKINFYGWYRQAPGKEREKVAHISIGDQTDYADSAKGRFTISRDESKNTVYLQMNSLRPEDTALYYCRALSRIWPYDYWGQGTLVTVSSA
B11: T017000671 (bispecific antibody)
chain: DVQLVESGGGLVQAGGSLRLSCAASGITSKINDMGWYRQTPGNYREWVASITATGTTNYRDSVKGRFTISRDNAKSTVYLQMNSLKPEDTTVYYCNTFPPISNFWGQGTLVTVSSGGGGSGGGGSGGGGSGGGGSGGGGSGGGGSGGGGSEVQLVESGGGVVQPGGSLRLSCVASGYVHKINFYGWYRQAPGKEREKVAHISIGDQTDYADSAKGRFTISRDESKNTVYLQMNSLRPEDTALYYCRALSRIWPYDYWGQGTLVTVSSGGGGSGGGGSGGGGSGGGGSGGGGSGGGGSGGGGSEVQLVESGGGLVQAGGPLRLSCAASGRTFSSYVMGWFRQAPGKEREFVAAIYWSNGKTQYTDSVKGRFTISGDNAKNTVYLQMNSLNPEDTAVYYCVADKDETGFRTLPIAYDYWGQGTLVTVSSA

Target: human GPC3 on cells (human) (UniProt P51654)
Assay: cell-based or functional assay

Row | HepG2 on Incucyte IC50 (M), human TDC, E:T 15:1, 60 h [M] | Huh7 on xCELLigence IC50 (M), human TDC, E:T 15:1, 60 h [M] | IC50 (M) BxPC-3, xCELLigence human TDC assay, E:T 15:1, 60 h [M] | IC50 (M) HepG2, xCELLigence human TDC assay, E:T 15:1, 60 h [M] | IC50 (M) Huh-7, xCELLigence human TDC assay, E:T 15:1, 60 h [M] | IC50 (M) NCI-H661, xCELLigence human TDC assay, E:T 15:1, 60 h [M] | IC50 (M) NCI-H23, xCELLigence human TDC assay, E:T 15:1, 60 h [M] | Binder | HepG2 on Incucyte Max % killing, 60 h [%] | Huh7 on xCELLigence Max % killing, 60 h [%]
1 | 6.01e-10 | 6.7e-11 |  |  |  |  |  | B1 | 81 | 90
2 |  |  | > 1e-07 | 3.82e-10 | 1.53e-09 | 6.18e-10 |  | B2 |  | 
3 | 3.19e-10 | 1.86e-10 |  |  |  |  |  | B3 | 97 | 103
4 |  |  | > 1e-07 | 1.03e-10 | 1.37e-10 | 1e-10 | > 1e-07 | B4 |  | 
5 |  |  | > 1e-07 | 1.11e-10 | 1.58e-10 | 2.59e-10 | > 1e-07 | B5 |  | 
6 |  |  | > 1e-07 | 1.25e-10 | 1.09e-10 | 2.64e-10 | > 1e-07 | B6 |  | 
7 | 2.92e-09 | 6.13e-09 |  |  |  |  |  | B7 | 76 | 66

Target: Human T cell receptor on human primary T cells (human) (UniProt P01848)
Assay: cell-based or functional assay

Chain of Human T cell receptor on human primary T cells (human) (P01848 whole entry, chain 1 of 2): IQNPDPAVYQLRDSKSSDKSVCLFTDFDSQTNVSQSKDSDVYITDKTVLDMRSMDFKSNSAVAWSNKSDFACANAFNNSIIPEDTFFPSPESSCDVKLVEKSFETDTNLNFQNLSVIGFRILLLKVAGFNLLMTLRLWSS
Chain of Human T cell receptor on human primary T cells (human) (P01850 whole entry, chain 2 of 2, further chain): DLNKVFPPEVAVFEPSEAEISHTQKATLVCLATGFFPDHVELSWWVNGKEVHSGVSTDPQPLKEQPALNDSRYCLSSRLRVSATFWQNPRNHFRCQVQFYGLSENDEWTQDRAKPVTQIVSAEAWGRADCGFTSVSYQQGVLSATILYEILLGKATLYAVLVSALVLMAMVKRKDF

Row | Binder | % lysis, KG-1a, Human T cell mediated killing [%] | % lysis, MOLM-13, Human T cell mediated killing [%] | Average EC50 (M), KG-1a, Human T cell mediated killing [M] | Average EC50 (M), MOLM-13, Human T cell mediated killing [M] | IC50 (M), xCELLigence cell killing, Human T cell mediated killing, E:T 15:1 [M]
8 | B8 | 51 | 25 | 7.8e-11 | 2.5e-11 | 4.7e-11
9 | B9 | 52 | 26 | 7.4e-11 | 2.5e-11 | 9.4e-11
10 | B10 | 46 | 23 | 9.2e-11 | 3.4e-11 | 5e-11
11 | B11 | 21 | 14 | 1.5e-10 | 1.5e-10 | 

Target: Cynomolgus T cell receptor on cynomolgus primary T cells (cynomolgus monkey)
Assay: cell-based or functional assay

Row | Binder | % lysis, KG-1a, Cynomolgus T cell mediated killing [%] | % lysis, MOLM-13, Cynomolgus T cell mediated killing [%] | Average EC50 (M), KG-1a, Cynomolgus T cell mediated killing [M] | Average EC50 (M), MOLM-13, Cynomolgus T cell mediated killing [M]
12 | B8 | 26 | 40 | 1.2e-11 | 7.2e-11
13 | B9 | 30 | 34 | 8.1e-12 | 2e-11
14 | B10 | 26 | 31 | 2.6e-11 | 6.9e-11
15 | B11 |  | 46 |  | 2.1e-11
